{"source": "patent US20220340673A1", "about": "(HARBOUR BIOMED SUZHOU, published 2022)", "key": {"[1]": {"target": "T1, human BCMA on cells (HEK293T/huBCMA; NCI-H929) (human, UniProt Q02223 1-184)", "T1 construct": "whole, on cells; also called human BCMA molecules on NCI-H929 cell line", "T1 sequence (looked up)": "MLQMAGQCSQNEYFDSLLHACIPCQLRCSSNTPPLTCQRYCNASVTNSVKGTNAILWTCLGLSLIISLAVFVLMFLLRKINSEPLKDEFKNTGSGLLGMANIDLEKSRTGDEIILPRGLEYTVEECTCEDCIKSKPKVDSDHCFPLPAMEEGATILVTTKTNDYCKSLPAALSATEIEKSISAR", "assay": "FACS on HEK293T cell strain overexpressing human BCMA [C]", "description": "To study the in vitro binding activity of the BCMA arm of the BCMA×CD3 bispecific antibody, HEK293T cell strain overexpressing human BCMA (HEK293T/huBCMA) and HEK293T cell strain overexpressing cynomolgus monkey BCMA (HEK293T/cynoBCMA) were used for antibody binding experiments at cellular level. Briefly, HEK293T/huBCMA cells and HEK293T/cynoBCMA cells were digested and resuspended with DMEM complete medium. The cell density of the two was adjusted to 1×10⁶ cells/mL, respectively. Cells were inoculated at 100 μL cells/well in a 96 well V-bottom plate (Corning, Cat#: 3894), followed by the addition of test antibodies at 100 μL/well, which is gradient diluted at 3 folds of the concentration with 2 folds of the final concentration. Cells were incubated at 4° C. for 1 hour in the dark. Afterwards, the cells were washed twice with 100 μL/well of pre-cooled PBS, centrifuged at 500 g for 5 min at 4° C., and followed by discarding the supernatant. 100 μL/well of fluorescent secondary antibody (Alexa Fluor 488-conjugated AffiniPure Goat Anti-Human IgG, Fcγ Fragment Specific, Jackson, Cat#: 109-545-06, 1:500 dilution) was added and incubated for 30 min at 4° C. in the dark. […] Finally, the cells were resuspended with 200 μL/well of pre-cooled PBS, and the fluorescence luminescence signal values were read by BD FACS CANTOII. […]"}, "[2]": {"target": "T2, human BCMA-Fc, Avitag recombinant protein (ACRO, Cat. BC7-H82F0) (human, UniProt Q02223 1-54)", "T2 construct": "extracellular domain; Bought reagent; amine-coupled to the CM5 chip in the Biacore assay; also called recombinant human BCMA-ECD-Fc; human BCMA recombinant protein; not shown: Fc and Avitag of the bought protein", "T2 sequence (looked up)": "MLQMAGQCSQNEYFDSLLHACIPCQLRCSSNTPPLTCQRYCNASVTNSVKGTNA", "assay": "SPR (Biacore T200), antigen amine-coupled on CM5, antibody as analyte, 1:1 fit", "procedure": "(§1) The flow rate was set as 10 μl/min and four antigens were coupled on four channels on two CMS: 1) the injection time was set as 300 s, and 50 mM of NHS and 200 mM of EDC were freshly mixed at 1:1 volume ratio and injected into four channels; 2) human BCMA-Fc, Avitag recombinant protein, cynomolgus monkey BCMA-FC, Avitag, human CD3e/g ECD-hFc recombinant protein and cynomolgus CD3e/g ECD-hFc recombinant protein were all diluted to 1 μg/ml with sodium acetate (Cat# BR-1003-50) (pH 4.5), and injected into channel 2, 3 and 4 of chip 1 and channel 2 of chip 2, respectively; 3) 1 M of ethanolamine (pH8.5) was injected for 300 s to block the remaining active carboxyl groups on the chips surface. After blockage, the instrument was continued to be equilibrated with 1 ×HBS- EP+buffer for two hours. The final coupling amounts of human BCMA-Fc, Avitag recombinant protein, cynomolgus monkey BCMA-Fc, Avitag, human CD3e/g ECD-hFc recombinant protein and cynomolgus monkey CD3e/g ECD-hFc recombinant protein were 120 RU, 70 RU, 200 RU and 290 RU, respectively.\n(§2) A multi-cycle kinetic mode was set, and each cycle included the binding of PRO03178 as well as the regeneration of the chip. […]\n(§3) The experimental results were analyzed by using Biacore T200 analysis software, and channel 1 was deducted as reference channel, and a 1:1 kinetic fit model was selected as the analysis model."}, "[3]": {"target": "T3, human CD3e/g ECD-hFc recombinant protein (human, UniProt P07766 23-126; P09693 23-116)", "T3 construct": "extracellular domain; Bought from ChemPartner; not shown: human Fc", "T3 sequence (P07766 23-126, chain 1 of 2)": "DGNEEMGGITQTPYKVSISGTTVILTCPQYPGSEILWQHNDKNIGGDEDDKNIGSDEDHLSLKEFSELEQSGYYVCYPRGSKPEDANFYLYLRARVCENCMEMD", "T3 sequence (P09693 23-116, chain 2 of 2)": "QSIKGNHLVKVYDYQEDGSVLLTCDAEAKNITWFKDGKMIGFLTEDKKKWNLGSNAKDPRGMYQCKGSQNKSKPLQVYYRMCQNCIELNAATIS", "assay": "SPR (Biacore T200), antigen amine-coupled on CM5, antibody as analyte, 1:1 fit", "procedure": "as §1, §2, §3"}, "[4]": {"target": "T2, human BCMA-Fc, Avitag recombinant …", "assay": "Biacore, antigen coupled to a CM5 chip, PR003178 injected at 12-0.375 nM, 1:1 kinetic fit [E]", "procedure": "(§4) Human BCMA-Fc, Avitag recombinant protein (ACRO, Cat. BC7-H82F0), cynomolgus monkey BCMA-Fc, Avitag (ACRO, Cat. BCA-C82F4) were purchased from ACRO, human CD3e/g ECD-hFc recombinant protein (Lot.20190508002), cynomolgus monkey CD3e/g ECD-hFc recombinant protein and human (Lot.2018040001) were purchased from ChemPartner.\nas §1\n(§5) A multi-cycle kinetic mode was set, and each cycle included the binding of PRO03178 as well as the regeneration of the chip. PRO03178 with two-fold gradient dilution was injected into four channels at a flow rate of 30 μl/min. A binding time of 180 s and a dissociation time of 400 s or 600s were set. Finally, 10 mM of glycine-hydrochloric acid (pH 1.5) (GE Life Sciences, Cat# BR-1003-54) was injected at the same flow rate for 60 s to regenerate the chip."}, "[5]": {"target": "T3, human CD3e/g ECD-hFc recombinant protein", "assay": "Biacore, antigen coupled to a CM5 chip, PR003178 injected at 12-0.375 nM, 1:1 kinetic fit [E]", "procedure": "as §4, §1, §5"}, "[6]": {"target": "T4, cynomolgus monkey BCMA-Fc, Avitag (ACRO, Cat. BCA-C82F4) (cynomolgus monkey, UniProt A0A2K5UD97 1-53)", "T4 construct": "Bought reagent; amine-coupled to the CM5 chip; also called cynomolgus monkey BCMA recombinant protein; not shown: Fc and Avitag of the bought protein", "T4 sequence (A0A2K5UD97 entry or part of it)": "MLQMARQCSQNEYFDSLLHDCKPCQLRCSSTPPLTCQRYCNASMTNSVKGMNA", "assay": "Biacore, antigen coupled to a CM5 chip, PR003178 injected at 6-0.1875 nM, 1:1 kinetic fit [E]", "procedure": "as §4, §1, §5"}}}
{"binder": "BCMA x CD3 bispecific antibody PR003178 (bispecific antibody, human IgG1, lambda, L234A L235A, Three chains: HC1 (anti-CD3 heavy, knob, LALA), LC (anti-CD3 lambda light), HC2 (two tandem anti-BCMA VH of PR001046 joined by (G4S)3, then Fc hole, LALA); also called PRO03178) heavy 1: not shown light: QAVVTQEPSLTVSPGGTVTLTCRSSTGAVTTSNYANWVQQKPGQAPRGLIGGTNKRAPWTPARFSGSLLGDKAALTLLGAQPEDEAEYFCALWYSNLWVFGGGTKLTVLGQPKAAPSVTLFPPSSEELQANKATLVCLISDFYPGAVTVAWKADSSPVKAGVETTTPSKQSNNKYAASSYLSLTPEQWKSHRSYSCQVTHEGSTVEKTVAPTECS heavy 2: EVQLVETGGGLIQPGGSLRLSCAASGFTVSDNYMTWVRQAPGKGLEWVSVIFSGGNTYYADSVKGRFTISRDNAKNTLYLQMNSLRAEDTALYYCARRNYDDTRGTDVFDIWGQGTMVTVSSGGGGSGGGGSGGGGSEVQLVETGGGLIQPGGSLRLSCAASGFTVSDNYMTWVRQAPGKGLEWVSVIFSGGNTYYADSVKGRFTISRDNAKNTLYLQMNSLRAEDTALYYCARRNYDDTRGTDVFDIWGQGTMVTVSSASEPKSSDKTHTCPPCPAPEAAGGPSVFLFPPKPKDTLMISRTPEVTCVVVDVSHEDPEVKFNWYVDGVEVHNAKTKPREEQYNSTYRVVSVLTVLHQDWLNGKEYKCKVSNKALPAPIEKTISKAKGQPREPQVCTLPPSREEMTKNQVSLSCAVKGFYPSDIAVEWESNGQPENNYKTTPPVLDSDGSFFLVSKLTVDKSRWQQGNVFSCSVMHEALHNHYTQKSLSLSPGK", "values": [{"measurement": "EC50", "setting": "[1]", "value": 0.188, "unit": "nM"}, {"measurement": "Kd", "setting": "[2]", "value": "~0.0949", "unit": "nM"}, {"measurement": "Kd", "setting": "[3]", "value": "~25.4", "unit": "nM"}, {"measurement": "koff", "setting": "[4]", "value": 0.000167, "unit": "s⁻¹"}, {"measurement": "kon", "setting": "[4]", "value": "1.76e+06", "unit": "M⁻¹ s⁻¹"}, {"measurement": "koff", "setting": "[5]", "value": 0.0149, "unit": "s⁻¹"}, {"measurement": "kon", "setting": "[5]", "value": 588000, "unit": "M⁻¹ s⁻¹"}, {"measurement": "Kd", "setting": "[6]", "value": 0.147, "unit": "nM"}, {"measurement": "koff", "setting": "[6]", "value": 0.000285, "unit": "s⁻¹"}, {"measurement": "kon", "setting": "[6]", "value": "1.94e+06", "unit": "M⁻¹ s⁻¹"}]}
